± gives the standard deviation.
Assay: protein stability index of a GFP-peptide fusion (GPS, HEK-293T) (PSI 1-6); higher = more stable
[1] = treatment: DMSO, c terminus: a fixed tail appended
[2] = treatment: MLN4924 1 uM, 8 h, c terminus: a fixed tail appended
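Further: 24-mer peptide tiles fused after GFP, lentivirally expressed, FACS-sorted into six equal bins by GFP/DsRed ratio, decoded by Illumina sequencing, PSI is the read-weighted mean bin number.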

Row | Sequence | protein stability index [1] | protein stability index [2] | protein stability index (treatment: DMSO, c terminus: native) | protein stability index (treatment: MLN4924 1 uM, 8 h, c terminus: native)
1 | GTTLRGRSDADLVVFLSPLTTFQD [OAS1] | 2.18 ± 0.4 | 2.28 ± 0.31 |  | 
2 | VKCFNDLKAEELLLKIHEVSTVSH [CASP6] | 2.23 ± 0.24 | 2.44 ± 0.16 |  | 
3 | RKLLNRHNIVFGDYTWTEFDEPFL [TRIP13] | 2.24 ± 0.24 | 2.64 ± 0.22 |  | 
4 | NTSLHVFVLDENDNAPAVLHPRPD [PCDHGC5] | 3.49 ± 0.27 | 3.51 ± 0.2 |  | 
5 | LPKPPGTPVVTESTATSITLTWDS [PTPRD] | 3.88 ± 0.087 | 3.88 ± 0.18 |  | 
6 | DGLLGDNQIMPKAGLLIIVLAIIA [MAGEA3] | 3.11 ± 0.91 | 2.46 ± 0.34 |  | 
7 | HTGEKPYKCLECGKAFSQNSGLIN [ZNF24] | 2.68 ± 0.19 | 2.88 ± 0.21 |  | 
8 | AAEERALFTDRMATRSTTQSNRTS [WEE1] | 5.1 ± 0.2 | 5.17 ± 0.21 |  | 
9 | NKKYYKKFSIPDLDRHQLPLDDAL [DPCD] | 3.46 ± 0.13 | 3.55 ± 0.26 |  | 
10 | LTKTFQGPAVVCGTPTSHVYMFKN [LYSMD4] | 2.45 ± 0.22 | 2.63 ± 0.15 |  | 
11 | IVAGGYDERVLENVEHYQELKKMV [ALG2] | 3.14 ± 0.25 | 3.2 ± 0.11 |  | 
12 | PSSGPVTPQPTALTFAKSSWARQE [AUP1] | 4.2 ± 0.29 | 4.27 ± 0.24 |  | 
13 | LMFLDICSELNKLCQHFEAVHSGT [SPACA9] | 2.67 ± 0.72 | 2.4 ± 0.29 |  | 
14 | NVLKSYIGLGHIYSGTFALIGAAA [CLCN6] | 3.63 ± 0.91 | 3.04 ± 0.32 |  | 
15 | SHGVRNKCLQLLGNLGSLEKSVTK [INTS4] | 3.23 ± 0.27 | 3.28 ± 0.22 |  | 
16 | ETTRNTTGIEESTDGMILGPEDLS [LARP4] | 5.47 ± 0.4 | 5.43 ± 0.28 |  | 
17 | KARGKSGPLFNFDVHDDVRLLSDA [FAM50A] | 3.87 ± 0.15 | 3.81 ± 0.3 |  | 
18 | LVAFVLLNECVGTAYWALAGSIGG [SLC22A15] | 3.05 ± 0.34 | 2.86 ± 0.38 |  | 
19 | QSGGRLRRPVNVPLDMFSEEIKFY [KCNA1] | 2.52 ± 0.28 | 2.75 ± 0.28 |  | 
20 | PLWQCYLGRFNDINVPIRLECVKF [PDS5B] | 2.46 ± 0.54 | 2.35 ± 0.28 |  | 
21 | ALRAQRASSNVFSNFEQTQIQEFK [MYL5] | 4.07 ± 0.27 | 3.93 ± 0.23 |  | 
22 | VFGTSLTARVIIPLLKDEGFAVKA [GFOD1] | 2.7 ± 0.57 | 2.34 ± 0.25 |  | 
23 | IEVKTKGGSKYLIYRRYRQFHALQ [NCF4] | 2.22 ± 0.35 | 2.2 ± 0.33 |  | 

Row | Sequence | protein stability index [1] | protein stability index [2] | protein stability index (treatment: DMSO, c terminus: native) | protein stability index (treatment: MLN4924 1 uM, 8 h, c terminus: native)
24 | SLRGRAWQYLSGGKVKLQQNPGKF [TBC1D10A] | 3.13 ± 0.52 | 2.94 ± 0.29 |  | 
25 | YTSQITVEEGNVQTLLPAACLLQL [KLHL20] | 2.28 ± 0.061 | 2.3 ± 0.25 |  | 
26 | TFVSGGCDKKAMVWDMRSGQCVQA [GNB5] | 2.68 ± 0.2 | 2.89 ± 0.46 |  | 
27 | SGSESDHTTRSSLRGPRERAPSER [DVL3] | 5.33 ± 0.32 | 5.39 ± 0.24 |  | 
28 | STQIRALTEQQEQLRGQLQDLDSR [RASAL3] | 5.14 ± 0.27 | 5.12 ± 0.19 |  | 
29 | IFYGSGIFNYMRLGSTKLSDKDKA [OR3A1] | 1.93 ± 0.23 | 2.12 ± 0.19 |  | 
30 | LPACTLCAGPLEDAVTIPCGHTFC [TRIM15] | 3.818 ± 0.022 | 4.16 ± 0.35 |  | 
31 | DSHYGTKGLKKVVHETPAASKTVF [BTBD1] | 4.05 ± 0.095 | 4.14 ± 0.28 |  | 
32 | MYPESTTGSPARLSLRQTGSPGMI [KCNAB2] | 3.7 ± 0.51 | 4.1 ± 0.4 |  | 
33 | IETEDQIDKKPVSEKTDESDTIPY [MIA2] | 5.53 ± 0.3 | 5.3 ± 0.36 |  | 
34 | AGVLTIALPVPVIVSNFNYFYHRE [KCNA4] | 2.6 ± 0.21 | 2.84 ± 0.79 |  | 
35 | MFSDNSHCPDCGQQWFPSLELGHW [TOR1AIP2] | 2.33 ± 0.35 | 2.44 ± 0.34 |  | 
36 | QETPGPREALTRLQELCYQWLRPH [ZSCAN9] | 2.54 ± 0.12 | 2.6 ± 0.17 |  | 
37 | KDSHDPLPSWAELLRPKYRAPQGC [PBXIP1] | 3.01 ± 0.37 | 3.19 ± 0.2 |  | 
38 | SPVTATLSDEDDGFVDLLDGENLK [CDC25A] | 5.4 ± 0.21 | 5.52 ± 0.13 |  | 
39 | REPALDGGFQMHYEKTPFDQLAFI [EID1] | 2.65 ± 0.33 | 2.43 ± 0.28 |  | 
40 | AEFIESGQYRANEGTSSIVMEIQK [TAF7L] | 4.23 ± 0.24 | 4.45 ± 0.32 |  | 
41 | DLIKHQRIHTEEKPYKCQQCDKRF [ZNF75A] | 2.99 ± 0.23 | 3.31 ± 0.16 |  | 
42 | MERPMSQADLELDYNPPRVQLSDE [CBY2] | 5.36 ± 0.22 | 5.22 ± 0.21 |  | 
43 | LLGEETPMAADEGSAEKQAGEAHM [EHMT1] | 5.66 ± 0.31 | 5.57 ± 0.38 |  | 
44 | SLLKKPDGVKESTESSNTTIEDED [CAMK2D] | 5.52 ± 0.11 | 5.43 ± 0.19 |  | 
45 | LFAGPHSTLTPPCSPPEDGLCPH [SNX8] |  |  | 3.79 ± 0.52 | 3.85 ± 0.22
46 | FMRTDNTCVNLLLEASNYQMMPYM [KLHL13] | 2.46 ± 0.58 | 2.24 ± 0.36 |  | 

Row | Sequence | protein stability index [1] | protein stability index [2] | protein stability index (treatment: DMSO, c terminus: native) | protein stability index (treatment: MLN4924 1 uM, 8 h, c terminus: native)
47 | QDGSESFFFRHGHRGLLTMQLKSP [SPAG8] | 2.96 ± 0.3 | 3.03 ± 0.35 |  | 
48 | DINLSVRKLLNRHNIVFGDYTWTE [TRIP13] | 2.28 ± 0.29 | 2.22 ± 0.4 |  | 
49 | DDEQYAWESSAGGSFTVRADHGEP [HSP90AB1] | 5.14 ± 0.29 | 5.07 ± 0.12 |  | 
50 | ERAKMSSSEVGPFVSKIRAVINDI [AUH] | 2.76 ± 0.14 | 2.86 ± 0.31 |  | 
51 | RRMAAEATEWQKAGAPPPSGSAVS [SRPK2] | 4.59 ± 0.42 | 4.68 ± 0.29 |  | 
52 | SLVLPWSFPLEWAPQNLTRWTFEK [TOR1AIP2] | 2.14 ± 0.44 | 2.29 ± 0.32 |  | 
53 | KFAMYPPSMIATGSVGAAICGLQQ [CCND2] | 2.4 ± 0.52 | 2.2 ± 0.4 |  | 
54 | KCLVTEAQTLLRLSGVQRVESVFF [RSAD1] | 2.53 ± 0.43 | 2.4 ± 0.25 |  | 
55 | CGSKACRRLFGPVDSEQLRRDCDA [CDKN1A] | 3.18 ± 0.2 | 3.23 ± 0.093 |  | 
56 | QKLGSGAWDNPAYSGPPSPHGTLR [PKD2L1] | 3.79 ± 0.1 | 3.95 ± 0.31 |  | 
57 | MTSSSAYYYTKVMSELFLHTPSDT [PKD2L1] | 2.51 ± 0.28 | 2.16 ± 0.28 |  | 
58 | VRLAARQEDAPMIEPLVPEEKMET [EPB41L3] | 4.9 ± 0.16 | 5.17 ± 0.24 |  | 
59 | VLEHSLDREEEAIHHLVLTASDGG [PCDHGA10] | 4.66 ± 0.18 | 4.84 ± 0.17 |  | 
60 | DSEHEPVYRAELVGELNGYLRDSS [PWWP2B] | 4.46 ± 0.14 | 4.45 ± 0.16 |  | 
61 | SLLDELMEVQHFRTIYHMFIAGLC [SOAT2] | 2.59 ± 0.55 | 2.49 ± 0.42 |  | 
62 | SSPAGLSREYKLVMLGAGGVGKSA [RIT1] | 3.17 ± 0.62 | 2.96 ± 0.22 |  | 
63 | RTMDIPRSVQNFRFFASSSLHHTS [ALDH8A1] | 2.43 ± 0.15 | 2.62 ± 0.2 |  | 
64 | YSEEECKQYKAVVYSNTIQSIIAI [GNAI1] | 2.35 ± 0.63 | 2.06 ± 0.33 |  | 
65 | LCCAFSTDGSVLAAGTHDGSVYFW [WSB1] | 2.78 ± 0.78 | 2.45 ± 0.78 |  | 
66 | EEAVILLEDLERELDEPQHEMVAH [ZSCAN9] | 4.14 ± 0.6 | 4.2 ± 0.34 |  | 
67 | GDCDAREEKQRELARKGSLKNGSM [FAM219A] | 5.1 ± 0.26 | 5.35 ± 0.4 |  | 
68 | EQELYNNFVYNSPRGYFHTFAGDT [WASL] | 2.73 ± 0.21 | 2.78 ± 0.32 |  | 
69 | LPSERWNPTQNVRTILLSVISLLN [CDC34] | 3.53 ± 0.2 | 3.58 ± 0.33 |  | 

Row | Sequence | protein stability index [1] | protein stability index [2] | protein stability index (treatment: DMSO, c terminus: native) | protein stability index (treatment: MLN4924 1 uM, 8 h, c terminus: native)
70 | QSCLLVIFATKPHVLPAVLAEVAP [PYCR3] | 3.09 ± 0.75 | 3.32 ± 0.74 |  | 
71 | KKKVGNYYTTPIYRFRMKCHLCVN [YJU2B] | 2.21 ± 0.33 | 2.19 ± 0.3 |  | 
72 | NSGLINHQRIHTGEKPYECVQCGK [ZNF24] | 3.92 ± 0.17 | 3.99 ± 0.31 |  | 
73 | SDNLLVILKRKWWKYILLGLADVE [SLC35F2] | 2.38 ± 0.21 | 2.31 ± 0.73 |  | 
74 | MSAQSVEEDSILIIPTPDEEEKIL [ZNF24] | 5.08 ± 0.19 | 5.23 ± 0.1 |  | 
75 | LLKAGADVNKTDHSQRTALHLAAQ [INVS] | 4.11 ± 0.33 | 4.09 ± 0.17 |  | 
76 | CFEASDCKESSPMPVICGPEENYP [NANOGP8] | 3.98 ± 0.32 | 4.24 ± 0.26 |  | 
77 | LPPDVTTQSVMGFDPLPPSDTIYS [TCF25] | 4.19 ± 0.16 | 4.37 ± 0.34 |  | 
78 | SPPEASPGPPAAPRARRRLGSGPD [PWWP2B] | 5.22 ± 0.39 | 5.47 ± 0.31 |  | 
79 | DFSSGGAAAAAAPAPPPPAGGATA [SNAP91] | 5.39 ± 0.3 | 5.37 ± 0.15 |  | 
80 | PVHTTILNPHIHLMGDESACIAYI [CAMK2A] | 2.42 ± 0.17 | 2.42 ± 0.082 |  | 
81 | DIRAKKIASIADVCESMKEQLLVL [HNF4A] | 2.5 ± 0.35 | 2.26 ± 0.22 |  | 
82 | ALLNDHIYVVGGFDGTAHLSSVEA [KLHL12] | 2.68 ± 0.32 | 3 ± 0.38 |  | 
83 | CDELELHQRFLREGRFWKSKNEDR [ZMYND11] | 4.29 ± 0.17 | 4.31 ± 0.36 |  | 
84 | CPSSPKQIHLDVDNDRTTPSDLDS [DLC1] | 5.52 ± 0.1 | 5.55 ± 0.14 |  | 
85 | LHSQEDDDSSSESGSGNGSSTLNP [NOL4L] | 5.39 ± 0.2 | 5.48 ± 0.17 |  | 
86 | GDPEEIRMLIHKTEDVNTLDSEKR [ANKRD44] | 5.51 ± 0.16 | 5.33 ± 0.33 |  | 
87 | AYDFPSPEWDTVTPEAKDLINKML [CAMK2A] | 3.24 ± 0.24 | 3.58 ± 0.34 |  | 
88 | QCCQTEIIELRRTVNALEIELQAQ [KRT36] | 2.95 ± 0.49 | 2.76 ± 0.4 |  | 
89 | PFHDSDPSALFSKIRRGQFCIPEH [TRIB1] | 3.13 ± 0.25 | 3.12 ± 0.44 |  | 

From the supplement of paper PMC10567573
